Target: VLDLR fused to monomeric GFP (VLDLR_mGFP) (mouse)
Assay: FRET or BRET; time-resolved fluorescence anisotropy imaging (TR-FAIM, homo-FRET) of mGFP-tagged proteins in living HEK293 cells, rFRET from global fit, Imaging Medium; basal state, and before and after 1 uM AP20187, FL-Reelin or R3-6 (up to 90 nM)

- rFRET: 0.0858
Substance: VLDLR fused to monomeric GFP (VLDLR_mGFP) (receptor)
